Columns and labels:
[1] = molecular target: human endoglin (human) (UniProt P17813); test: FACS, corrected fluorescence intensity grade, L-endoglin transfectant
[2] = molecular target: human endoglin (human) (UniProt P17813); test: indirect immunofluorescence FACS on HUVEC, 10 µg/ml
[3] = molecular target: human endoglin (human) (UniProt P17813); test: FACS, corrected fluorescence intensity grade, U937
[4] = molecular target: human endoglin (human) (UniProt P17813); test: FACS, corrected fluorescence intensity grade, HT-1080 and SAOS-2
[5] = molecular target: human endoglin (human) (UniProt P17813); test: FACS, corrected fluorescence intensity grade, MDA-MB-231 and SKBR3
[6] = molecular target: human endoglin (human) (UniProt P17813); test: competition FACS on HUVEC; unlabelled TEC-4 against biotinylated TEC-11 (competitor), ratio 1:1
[7] = molecular target: human endoglin (human) (UniProt P17813); test: competition FACS on HUVEC; unlabelled TEC-4 against biotinylated TEC-11 (competitor), ratio 1:100
[8] = molecular target: human endoglin (human) (UniProt P17813); test: FACS, corrected fluorescence intensity grade, ECV-304
[9] = molecular target: human endoglin (human) (UniProt P17813); test: FACS, corrected fluorescence intensity grade, A375M and T8
[10] = molecular target: human endoglin (human) (UniProt P17813); test: FACS, corrected fluorescence intensity grade, HUVEC
[11] = molecular target: human endoglin (human) (UniProt P17813); test: FACS on HUVEC, half-maximal fluorescence
[12] = molecular target: human endoglin (human) (UniProt P17813); test: cell-based or functional assay
[13] = molecular target: human endoglin (human) (UniProt P17813); test: FACS, 20 µg/ml TEC-11, sorted Endoglin^hi fraction of postconfluent HUVEC; SD in parentheses
[14] = molecular target: human endoglin (human) (UniProt P17813); test: competition FACS on HUVEC; unlabelled TEC-11 against biotinylated TEC-4 (competitor), ratio 1:1
[15] = molecular target: human endoglin (human) (UniProt P17813); test: FACS, 20 µg/ml TEC-11, sorted Endoglin^lo fraction of postconfluent HUVEC; SD in parentheses

Q: “TEC-4 (tumor endothelial cell antibody 4)” was tested. Which corrected fluorescence intensity (CFI) [1] did it give?
A: 50 to 100 cfi

Q: What about the specific mean fluorescence intensity (MFI) [2] of the same substance?
A: 200

Q: And the corrected fluorescence intensity (CFI) [3]?
A: 5 to 25 cfi

Q: And the corrected fluorescence intensity (CFI) [4]?
A: 5 to 25 cfi

Q: What about the corrected fluorescence intensity (CFI) [5] of the same substance?
A: 5 to 25 cfi

Q: What about the percent blocking of biotinylated TEC-11 [6] of the same substance?
A: 1%

Q: And the percent blocking of biotinylated TEC-11 [7]?
A: 20%

Q: And the corrected fluorescence intensity (CFI) [8]?
A: 25 to 50 cfi

Q: What about the corrected fluorescence intensity (CFI) [9] of the same substance?
A: 5 to 25 cfi

Q: And the corrected fluorescence intensity (CFI) [10]?
A: > 100 cfi

Q: And the EC50 [11]?
A: 4 µg/mL

Q: And the complement-mediated lysis of HUVEC (guinea pig complement, trypan blue) [12]?
A: 48%

Q: Which corrected fluorescence intensity (CFI) [1] does the source give for “TEC-11 (tumor endothelial cell antibody 11)” here?
A: 50 to 100 cfi

Q: And the specific mean fluorescence intensity (MFI) [2]?
A: 200

Q: What about the corrected fluorescence intensity (CFI) [3] of the same substance?
A: 5 to 25 cfi

Q: And the corrected fluorescence intensity (CFI) [4]?
A: 5 to 25 cfi

Q: What about the corrected fluorescence intensity (CFI) [5] of the same substance?
A: 5 to 25 cfi

Q: And the MFI [13]?
A: 270

Q: And the corrected fluorescence intensity (CFI) [8]?
A: 25 to 50 cfi

Q: What about the corrected fluorescence intensity (CFI) [9] of the same substance?
A: 5 to 25 cfi

Q: What about the corrected fluorescence intensity (CFI) [10] of the same substance?
A: > 100 cfi

Q: What about the EC50 [11] of the same substance?
A: 0.4 µg/mL

Q: What about the complement fixation relative to TEC-4 [12] of the same substance?
A: 100 fold

Q: And the complement-mediated lysis of HUVEC (guinea pig complement, trypan blue) [12]?
A: > 50%

Q: What about the percent blocking of biotinylated TEC-4 [14] of the same substance?
A: 51%

Q: And the MFI [15]?
A: 61.6

— US6451312
